Test results: patent US20160264649A1

What was measured:
Assay in all cases: cell-based or functional assay
[1] = target: HIV-1 Env of isolate MGRM-AE-004 (subtype AE) (HIV-1)
[2] = target: HIV-1 Env of isolate 92WR021 (subtype A) (HIV-1)
[3] = target: HIV-1 Env of isolate MGRM-D-029 (subtype D) (HIV-1)
[4] = target: HIV-1 Env of isolate MGRM-AE-008 (subtype AE) (HIV-1)
[5] = target: HIV-1 Env of isolate MGRM-D-002 (subtype D) (HIV-1)
[6] = target: HIV-1 Env of isolate MGRM-AE-003 (subtype AE) (HIV-1)
[7] = target: HIV-1 Env of isolate CMU02 (subtype AE) (HIV-1)
[8] = target: HIV-1 Env of isolate MGRM-F1-020 (subtype F) (HIV-1)
[9] = target: HIV-1 Env of isolate MGRM-F1-012 (subtype F) (HIV-1)
[10] = target: HIV-1 Env of isolate MGRM-F1-021 (subtype F) (HIV-1)
[11] = target: HIV-1 Env of isolate MGRM-D-028 (subtype D) (HIV-1)
[12] = target: HIV-1 Env of isolate MGRM-D-003 (subtype D) (HIV-1)
[13] = target: HIV-1 Env of isolate 92UG037 (subtype A) (HIV-1)
[14] = target: HIV-1 Env of isolate 94 KE 105 (subtype AC) (HIV-1)
[15] = target: HIV-1 Env of isolate 94UG103 (subtype A) (HIV-1)
[16] = target: HIV-1 Env of isolate MGRM-AE-007 (subtype AE) (HIV-1)
[17] = target: HIV-1 Env of isolate MGRM-D-008 (subtype D) (HIV-1)
[18] = target: HIV-1 Env of isolate MGRM-F1-016 (subtype F) (HIV-1)
[19] = target: HIV-1 Env of isolate MGRM-D-001 (subtype D) (HIV-1)
[20] = target: HIV-1 Env of isolate 92WR020 (subtype A) (HIV-1)
[21] = target: HIV-1 Env of isolate MGRM-D-022 (subtype D) (HIV-1)
[22] = target: HIV-1 Env of isolate MGRM-F1-022 (subtype F) (HIV-1)
[23] = target: HIV-1 Env of isolate MGRM-F1-017 (subtype F) (HIV-1)
[24] = target: HIV-1 Env of isolate MGRM-D-014 (subtype D) (HIV-1)
[25] = target: HIV-1 Env of isolate MGRM-D-016 (subtype D) (HIV-1)
[26] = target: HIV-1 Env of isolate MGRM-D-020 (subtype D) (HIV-1)
[27] = target: HIV-1 Env of isolate MGRM-F1-014 (subtype F) (HIV-1)
[28] = target: HIV-1 Env of isolate 92WR026 (subtype A) (HIV-1)
[29] = target: HIV-1 Env of isolate MGRM-F1-023 (subtype F) (HIV-1)
[30] = target: HIV-1 Env of isolate MGRM-D-004 (subtype D) (HIV-1)
[31] = target: HIV-1 Env of isolate MGRM-D-024 (subtype D) (HIV-1)
[32] = target: HIV-1 Env of isolate MGRM-F1-008 (subtype F) (HIV-1)
[33] = target: HIV-1 Env of isolate MGRM-F1-015 (subtype F) (HIV-1)
[34] = target: HIV-1 Env of isolate MGRM-D-019 (subtype D) (HIV-1)
[35] = target: HIV-1 Env of isolate MGRM-AE-001 (subtype AE) (HIV-1)
[36] = target: HIV-1 Env of isolate VLGCA1 (subtype A) (HIV-1)
[37] = target: HIV-1 Env of isolate MGRM-D-013 (subtype D) (HIV-1)
[38] = target: HIV-1 Env of isolate MGRM-F1-013 (subtype F) (HIV-1)
[39] = target: HIV-1 Env of isolate MGRM-F1-018 (subtype F) (HIV-1)
[40] = target: HIV-1 Env of isolate MGRM-AE-002 (subtype AE) (HIV-1)
[41] = target: HIV-1 Env of isolate MGRM-AE-006 (subtype AE) (HIV-1)
[42] = target: HIV-1 Env of isolate MGRM-D-005 (subtype D) (HIV-1)
[43] = target: HIV-1 Env of isolate MGRM-D-011 (subtype D) (HIV-1)
[44] = target: HIV-1 Env of isolate MGRM-D-021 (subtype D) (HIV-1)
[45] = target: HIV-1 Env of isolate MGRM-D-026 (subtype D) (HIV-1)
[46] = target: HIV-1 Env of isolate MGRM-F1-010 (subtype F) (HIV-1)
[47] = target: HIV-1 Env of isolate 92WR024 (subtype A) (HIV-1)
[48] = target: HIV-1 Env of isolate 93WR029 (subtype A) (HIV-1)
[49] = target: HIV-1 Env of isolate MGRM-F1-004 (subtype F) (HIV-1)
[50] = target: HIV-1 Env of isolate MGRM-AE-005 (subtype AE) (HIV-1)
[51] = target: HIV-1 Env of isolate MGRM-F1-006 (subtype F) (HIV-1)
[52] = target: HIV-1 Env of isolate 92UG114 (subtype D) (HIV-1)
[53] = target: HIV-1 Env of isolate 92TH021 (subtype AE) (HIV-1)
[54] = target: HIV-1 Env of isolate 92WR009 (subtype A) (HIV-1)
[55] = target: HIV-1 Env of isolate 93UG077 (subtype A) (HIV-1)
[56] = target: HIV-1 Env of isolate MGRM-D-018 (subtype D) (HIV-1)
[57] = target: HIV-1 Env of isolate 92UG031 (subtype A) (HIV-1)
[58] = target: HIV-1 Env of isolate MGRM-D-012 (subtype D) (HIV-1)

Sequence of PGT-142 (4995_E20) (antibody) (VH): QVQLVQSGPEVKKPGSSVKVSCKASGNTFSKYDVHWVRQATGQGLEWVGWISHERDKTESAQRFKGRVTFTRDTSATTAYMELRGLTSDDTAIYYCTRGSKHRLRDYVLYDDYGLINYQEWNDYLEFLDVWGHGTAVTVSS
Sequence of PGT-142 (4995_E20) (antibody) (VL): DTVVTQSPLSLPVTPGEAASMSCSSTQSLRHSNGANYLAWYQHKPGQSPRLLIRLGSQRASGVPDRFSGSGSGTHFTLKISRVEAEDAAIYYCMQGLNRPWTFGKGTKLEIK

PGT-142 (4995_E20) (antibody)
IC50 (pseudovirus neutralization) [1]: 0.001 µg/mL | IC50 (pseudovirus neutralization) [2]: > 50 µg/mL | IC50 (pseudovirus neutralization) [3]: 0.192 µg/mL | IC50 (pseudovirus neutralization) [4]: 0.08 µg/mL | IC50 (pseudovirus neutralization) [5]: > 50 µg/mL | IC50 (pseudovirus neutralization) [6]: > 50 µg/mL | IC50 (pseudovirus neutralization) [7]: > 50 µg/mL | IC50 (pseudovirus neutralization) [8]: 0.824 µg/mL | IC50 (pseudovirus neutralization) [9]: > 50 µg/mL | IC50 (pseudovirus neutralization) [10]: > 50 µg/mL | IC50 (pseudovirus neutralization) [11]: > 50 µg/mL | IC50 (pseudovirus neutralization) [12]: > 50 µg/mL | IC50 (pseudovirus neutralization) [13]: 0.557 µg/mL | IC50 (pseudovirus neutralization) [14]: 0.19 µg/mL | IC50 (pseudovirus neutralization) [15]: > 50 µg/mL | IC50 (pseudovirus neutralization) [16]: 6.7 µg/mL | IC50 (pseudovirus neutralization) [17]: 0.174 µg/mL | IC50 (pseudovirus neutralization) [18]: > 50 µg/mL | IC50 (pseudovirus neutralization) [19]: > 50 µg/mL | IC50 (pseudovirus neutralization) [20]: 31.5 µg/mL | IC50 (pseudovirus neutralization) [21]: > 50 µg/mL | IC50 (pseudovirus neutralization) [22]: 0.04 µg/mL | IC50 (pseudovirus neutralization) [23]: 23.5 µg/mL | IC50 (pseudovirus neutralization) [24]: 0.005 µg/mL | IC50 (pseudovirus neutralization) [25]: > 50 µg/mL | IC50 (pseudovirus neutralization) [26]: > 50 µg/mL | IC50 (pseudovirus neutralization) [27]: 0.001 µg/mL | IC50 (pseudovirus neutralization) [28]: 1.78 µg/mL | IC50 (pseudovirus neutralization) [29]: 0.602 µg/mL | IC50 (pseudovirus neutralization) [30]: > 50 µg/mL | IC50 (pseudovirus neutralization) [31]: > 50 µg/mL | IC50 (pseudovirus neutralization) [32]: 0.124 µg/mL | IC50 (pseudovirus neutralization) [33]: > 50 µg/mL | IC50 (pseudovirus neutralization) [34]: 0.155 µg/mL | IC50 (pseudovirus neutralization) [35]: > 50 µg/mL | IC50 (pseudovirus neutralization) [36]: 2.75 µg/mL | IC50 (pseudovirus neutralization) [37]: 0.221 µg/mL | IC50 (pseudovirus neutralization) [38]: 0.023 µg/mL | IC50 (pseudovirus neutralization) [39]: 0.404 µg/mL | IC50 (pseudovirus neutralization) [40]: > 50 µg/mL | IC50 (pseudovirus neutralization) [41]: > 50 µg/mL | IC50 (pseudovirus neutralization) [42]: 1.15 µg/mL | IC50 (pseudovirus neutralization) [43]: > 50 µg/mL | IC50 (pseudovirus neutralization) [44]: > 50 µg/mL | IC50 (pseudovirus neutralization) [45]: 12.5 µg/mL | IC50 (pseudovirus neutralization) [46]: > 50 µg/mL | IC50 (pseudovirus neutralization) [47]: 0.069 µg/mL | IC50 (pseudovirus neutralization) [48]: 0.014 µg/mL | IC50 (pseudovirus neutralization) [49]: 0.013 µg/mL | IC50 (pseudovirus neutralization) [50]: > 50 µg/mL | IC50 (pseudovirus neutralization) [51]: 12.9 µg/mL | IC50 (pseudovirus neutralization) [52]: > 50 µg/mL | IC50 (pseudovirus neutralization) [53]: 0.002 µg/mL | IC50 (pseudovirus neutralization) [54]: 0.006 µg/mL | IC50 (pseudovirus neutralization) [55]: > 50 µg/mL | IC50 (pseudovirus neutralization) [56]: > 50 µg/mL | IC50 (pseudovirus neutralization) [57]: 0.05 µg/mL | IC50 (pseudovirus neutralization) [58]: > 50 µg/mL
